Article PMC7618510, “The accessory protein MRAP2 directly interacts with melanocortin-3 receptor to enhance signaling” (Science signaling, 2025)
Blank lines part the entries; values can stand above or below the binder they belong to.

What was measured:
[1] = target: the molecule itself; experiment: single-molecule pull-down (SiMPull) with photobleaching step counting; one colour: HEK293 cells expressing the HA-Halo-tagged protein alone, labelled at the surface with membrane-impermeable CA-Sulfo646, lysed in 0.5% LMNG/0.05% CHS, immobilised by the HA tag on slides with biotinylated HA antibody, single molecules imaged by TIRF
[2] = target: T1, HA-Halo-MC3R (melanocortin-3 receptor) (human, UniProt P41968 1-323, CA-Sulfo646 dye on the Halo tag (SiMPull)); experiment: single-molecule pull-down (SiMPull) with photobleaching step counting; two colours: lysate of HEK293 cells cotransfected with 300 ng HA-Halo-tagged and 600 ng FLAG-CLIP-tagged plasmid, labelled at the surface with CA-Sulfo646 and BC-DY547, lysed in 0.5% LMNG/0.05% CHS; HA-tagged protein immobilised on HA antibody; co-localised spots and bleaching steps counted by TIRF; conditions: partners not purified
T1 construct: melanocortin-3 receptor (MC3R), human; S14 and the UBIRA repository (DOI 10.25500/edata.bham.00001385); also called ss-HA-Halo-MC3R; source: HEK293 (AD-293), transiently transfected, in lysate (LMNG-CHS) or in cells; not shown: HA, N-terminal, kept; Halo, N-terminal, kept
T1 sequence (P41968 whole entry): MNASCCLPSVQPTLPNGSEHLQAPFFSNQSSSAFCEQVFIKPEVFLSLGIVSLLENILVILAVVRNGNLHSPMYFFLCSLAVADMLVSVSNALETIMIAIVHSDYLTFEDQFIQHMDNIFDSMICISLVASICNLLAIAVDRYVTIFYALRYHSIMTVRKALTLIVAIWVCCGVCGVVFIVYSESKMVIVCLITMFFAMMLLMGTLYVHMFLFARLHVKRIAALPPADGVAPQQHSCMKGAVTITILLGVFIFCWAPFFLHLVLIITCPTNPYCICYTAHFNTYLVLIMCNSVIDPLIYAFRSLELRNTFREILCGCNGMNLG

B1: mGluR2 (receptor, UniProt P31421 19-872, looked up)
chain: EGPAKKVLTLEGDLVLGGLFPVHQKGGPAEECGPVNEHRGIQRLEAMLFALDRINRDPHLLPGVRLGAHILDSCSKDTHALEQALDFVRASLSRGADGSRHICPDGSYATHSDAPTAVTGVIGGSYSDVSIQVANLLRLFQIPQISYASTSAKLSDKSRYDYFARTVPPDFFQAKAMAEILRFFNWTYVSTVASEGDYGETGIEAFELEARARNICVATSEKVGRAMSRAAFEGVVRALLQKPSARVAVLFTRSEDARELLAATQRLNASFTWVASDGWGALESVVAGSERAAEGAITIELASYPISDFASYFQSLDPWNNSRNPWFREFWEERFHCSFRQRDCAAHSLRAVPFEQESKIMFVVNAVYAMAHALHNMHRALCPNTTHLCDAMRPVNGRRLYKDFVLNVKFDAPFRPADTDDEVRFDRFGDGIGRYNIFTYLRAGSGRYRYQKVGYWAEGLTLDTSFIPWASPSAGPLPASRCSEPCLQNEVKSVQPGEVCCWLCIPCQPYEYRLDEFTCADCGLGYWPNASLTGCFELPQEYIRWGDAWAVGPVTIACLGALATLFVLGVFVRHNATPVVKASGRELCYILLGGVFLCYCMTFVFIAKPSTAVCTLRRLGLGTAFSVCYSALLTKTNRIARIFGGAREGAQRPRFISPASQVAICLALISGQLLIVAAWLVVEAPGTGKETAPERREVVTLRCNHRDASMLGSLAYNVLLIALCTLYAFKTRKCPENFNEAKFIGFTMYTTCIIWLAFLPIFYVTSSDYRVQTTTMCVSVSLSGSVVLGCLFAPKLHIILFQPQKNVVSHRAPTSRFGSAAPRASANLGQGSGSQFVPTVCNGREVVDSTTSSL
notes: metabotropic glutamate receptor 2 (mGluR2); also called dimeric GPCR mGluR2
stoichiometry N [1]: 2

stoichiometry N [2]: 1 MRAP2 per MC3R
B2: FLAG-CLIP-MRAP2 (melanocortin-2 receptor accessory protein 2) (natural protein, human, UniProt Q96G30 1-205, looked up)
chain: MSAQRLISNRTSQQSASNSDYTWEYEYYEIGPVSFEGLKAHKYSIVIGFWVGLAVFVIFMFFVLTLLTKTGAPHQDNAESSEKRFRMNSFVSDFGRPLEPDKVFSRQGNEESRSLFHCYINEVERLDRAKACHQTTALDSDVQLQEAIRSSGQPEEELNRLMKFDIPNFVNTDQNYFGEDDLLISEPPIVLETKPLSQTSHKDLD
modifications: BC-DY547 (CLIP-surface 547) dye on the CLIP tag
notes: melanocortin-2 receptor accessory protein 2 (MRAP2), human; S14 and the UBIRA repository; also called ss-FLAG-CLIP-MRAP2; source: HEK293 (AD-293), transiently transfected, in lysate (LMNG-CHS); not shown: FLAG, N-terminal, kept; CLIP, N-terminal, kept
